Tests used:
Conditions in all cases: both partners purified
complement C8 [1] = biological target: T1, complement C8 (UniProt P07357 31-584; P07358 55-591; P07360 21-202); assay: SPR; BIAcore 3000; TSP-1 bound covalently to CM5 chips at 0.1 uM; complement proteins as analytes at 12.3, 37.03, 111.1, 333.3, 1,000 nM in PBS plus 0.05% Tween 20; 1:1 Langmuir binding model; average of 3 repeated measurements
T1 construct: source: bought: Complement Technologies; copies: + +
T1 sequence (P07357 31-584, chain 1 of 3): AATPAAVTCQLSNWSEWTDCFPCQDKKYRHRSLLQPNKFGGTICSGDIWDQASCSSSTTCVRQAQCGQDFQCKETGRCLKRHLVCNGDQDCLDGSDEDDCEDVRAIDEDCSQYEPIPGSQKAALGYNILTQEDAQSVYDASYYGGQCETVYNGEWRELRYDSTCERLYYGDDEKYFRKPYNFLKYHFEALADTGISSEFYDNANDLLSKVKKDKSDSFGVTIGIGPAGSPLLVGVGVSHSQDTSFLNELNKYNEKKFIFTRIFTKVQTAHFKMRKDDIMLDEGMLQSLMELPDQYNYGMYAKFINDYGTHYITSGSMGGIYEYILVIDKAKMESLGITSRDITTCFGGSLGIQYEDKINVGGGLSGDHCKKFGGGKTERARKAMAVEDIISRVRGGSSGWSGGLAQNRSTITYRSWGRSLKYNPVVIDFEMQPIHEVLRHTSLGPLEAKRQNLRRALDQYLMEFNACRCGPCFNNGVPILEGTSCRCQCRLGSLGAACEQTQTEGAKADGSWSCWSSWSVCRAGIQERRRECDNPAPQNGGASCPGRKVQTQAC
T1 sequence (P07358 55-591, chain 2 of 3): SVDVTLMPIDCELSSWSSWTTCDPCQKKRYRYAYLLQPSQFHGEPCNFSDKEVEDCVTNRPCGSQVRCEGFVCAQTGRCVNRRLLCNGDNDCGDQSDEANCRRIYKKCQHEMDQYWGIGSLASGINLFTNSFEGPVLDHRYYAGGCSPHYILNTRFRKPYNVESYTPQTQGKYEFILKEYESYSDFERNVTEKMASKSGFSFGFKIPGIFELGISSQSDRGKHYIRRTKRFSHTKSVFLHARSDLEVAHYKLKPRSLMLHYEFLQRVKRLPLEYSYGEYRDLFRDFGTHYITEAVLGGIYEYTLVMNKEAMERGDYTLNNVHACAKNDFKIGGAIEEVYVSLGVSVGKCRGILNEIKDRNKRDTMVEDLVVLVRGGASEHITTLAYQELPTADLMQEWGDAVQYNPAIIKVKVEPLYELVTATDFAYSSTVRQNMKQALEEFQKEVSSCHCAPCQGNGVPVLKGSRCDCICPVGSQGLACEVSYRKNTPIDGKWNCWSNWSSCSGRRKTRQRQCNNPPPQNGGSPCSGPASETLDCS
T1 sequence (P07360 21-202, chain 3 of 3): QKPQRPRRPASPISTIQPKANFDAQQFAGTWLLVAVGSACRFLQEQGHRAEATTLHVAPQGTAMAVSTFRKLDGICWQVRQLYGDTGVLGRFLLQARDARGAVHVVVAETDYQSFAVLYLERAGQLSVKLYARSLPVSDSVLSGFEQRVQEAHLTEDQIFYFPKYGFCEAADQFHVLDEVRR

complement factor H = biological target: T2, complement factor H (UniProt P08603 19-1231); assay: as above
T2 construct: Complement factor H; also called FH; source: bought: Complement Technologies

complement C5 = biological target: T3, complement C5 (UniProt P01031 19-673; P01031 678-1676); assay: SPR; BIAcore 3000; TSP-1 bound covalently to CM5 chips at 0.1 μM; complement proteins flowed at 12.3, 37.03, 111.1, 333.3, 1,000 nM in PBS plus 0.05% Tween 20; 1:1 Langmuir binding model; average of 3 measurements
T3 construct: Complement C5 beta chain; Complement C5 alpha chain; source: bought: Complement Technologies

complement C8 [2] = biological target: T4, complement C8 (UniProt P07357 31-584; P07358 55-591; P07360 21-202); assay: as above
T4 construct: Complement component C8 alpha chain; Complement component C8 beta chain; Complement component C8 gamma chain; source: bought: Complement Technologies; copies: + +
T4 sequence (P07357 31-584, chain 1 of 3): as the sequence (P07357 31-584, chain 1 of 3) above
T4 sequence (P07358 55-591, chain 2 of 3): as the sequence (P07358 55-591, chain 2 of 3) above
T4 sequence (P07360 21-202, chain 3 of 3): as the sequence (P07360 21-202, chain 3 of 3) above

complement factor H (FH) = biological target: T5, complement factor H (FH) (UniProt P08603 19-1231); assay: as above
T5 construct: Complement factor H, obtained from Complement Technologies; source: bought: Complement Technologies

complement C3 = biological target: T6, complement C3 (UniProt P01024 23-667; P01024 672-1663); assay: as above
T6 construct: Complement C3 beta chain (75 kDa), cut from the C3 precursor; Complement C3 alpha chain (110 kDa), cut from the C3 precursor; source: bought: Complement Technologies
T6 sequence (P01024 23-667, chain 1 of 2): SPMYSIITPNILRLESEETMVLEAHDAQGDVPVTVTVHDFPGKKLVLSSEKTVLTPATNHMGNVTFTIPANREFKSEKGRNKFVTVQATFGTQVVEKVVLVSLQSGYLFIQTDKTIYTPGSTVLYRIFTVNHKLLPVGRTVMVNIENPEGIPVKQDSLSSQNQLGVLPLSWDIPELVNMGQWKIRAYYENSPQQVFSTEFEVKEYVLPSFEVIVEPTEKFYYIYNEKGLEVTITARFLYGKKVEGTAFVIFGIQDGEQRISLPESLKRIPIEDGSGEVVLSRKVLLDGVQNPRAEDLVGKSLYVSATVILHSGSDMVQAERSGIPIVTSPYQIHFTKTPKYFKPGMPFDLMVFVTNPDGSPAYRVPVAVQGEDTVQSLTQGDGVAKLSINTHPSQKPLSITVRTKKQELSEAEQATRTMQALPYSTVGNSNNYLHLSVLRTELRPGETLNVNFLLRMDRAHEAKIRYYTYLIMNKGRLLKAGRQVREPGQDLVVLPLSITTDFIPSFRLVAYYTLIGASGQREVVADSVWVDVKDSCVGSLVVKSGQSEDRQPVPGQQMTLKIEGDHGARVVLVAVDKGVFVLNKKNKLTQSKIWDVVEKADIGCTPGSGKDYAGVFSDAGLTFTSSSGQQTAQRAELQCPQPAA
T6 sequence (P01024 672-1663, chain 2 of 2): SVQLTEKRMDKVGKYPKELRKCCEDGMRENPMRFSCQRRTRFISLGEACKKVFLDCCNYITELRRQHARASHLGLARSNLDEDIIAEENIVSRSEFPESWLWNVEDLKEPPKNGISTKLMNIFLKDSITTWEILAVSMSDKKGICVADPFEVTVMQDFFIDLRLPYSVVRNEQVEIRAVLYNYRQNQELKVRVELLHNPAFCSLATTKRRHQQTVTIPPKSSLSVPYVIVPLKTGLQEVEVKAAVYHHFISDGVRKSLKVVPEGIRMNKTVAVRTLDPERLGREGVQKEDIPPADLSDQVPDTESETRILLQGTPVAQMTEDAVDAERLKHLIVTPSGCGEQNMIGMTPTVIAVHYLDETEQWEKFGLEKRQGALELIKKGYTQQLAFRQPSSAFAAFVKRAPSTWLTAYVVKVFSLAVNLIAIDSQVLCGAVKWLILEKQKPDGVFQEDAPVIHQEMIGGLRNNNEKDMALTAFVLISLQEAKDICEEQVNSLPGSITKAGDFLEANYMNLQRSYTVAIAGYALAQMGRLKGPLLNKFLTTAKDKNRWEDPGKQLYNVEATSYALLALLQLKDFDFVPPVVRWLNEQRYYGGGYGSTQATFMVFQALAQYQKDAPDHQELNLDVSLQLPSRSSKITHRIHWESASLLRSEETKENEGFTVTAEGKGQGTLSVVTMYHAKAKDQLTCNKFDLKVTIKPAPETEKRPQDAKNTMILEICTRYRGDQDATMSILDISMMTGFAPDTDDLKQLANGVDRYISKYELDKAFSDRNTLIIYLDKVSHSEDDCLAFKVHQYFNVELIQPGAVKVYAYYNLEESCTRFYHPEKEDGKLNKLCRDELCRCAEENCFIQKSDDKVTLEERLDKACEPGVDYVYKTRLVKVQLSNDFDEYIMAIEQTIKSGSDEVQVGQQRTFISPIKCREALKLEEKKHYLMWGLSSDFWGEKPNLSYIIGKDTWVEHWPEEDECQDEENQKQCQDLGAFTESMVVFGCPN

T3 sequence (P01031 19-673, chain 1 of 2): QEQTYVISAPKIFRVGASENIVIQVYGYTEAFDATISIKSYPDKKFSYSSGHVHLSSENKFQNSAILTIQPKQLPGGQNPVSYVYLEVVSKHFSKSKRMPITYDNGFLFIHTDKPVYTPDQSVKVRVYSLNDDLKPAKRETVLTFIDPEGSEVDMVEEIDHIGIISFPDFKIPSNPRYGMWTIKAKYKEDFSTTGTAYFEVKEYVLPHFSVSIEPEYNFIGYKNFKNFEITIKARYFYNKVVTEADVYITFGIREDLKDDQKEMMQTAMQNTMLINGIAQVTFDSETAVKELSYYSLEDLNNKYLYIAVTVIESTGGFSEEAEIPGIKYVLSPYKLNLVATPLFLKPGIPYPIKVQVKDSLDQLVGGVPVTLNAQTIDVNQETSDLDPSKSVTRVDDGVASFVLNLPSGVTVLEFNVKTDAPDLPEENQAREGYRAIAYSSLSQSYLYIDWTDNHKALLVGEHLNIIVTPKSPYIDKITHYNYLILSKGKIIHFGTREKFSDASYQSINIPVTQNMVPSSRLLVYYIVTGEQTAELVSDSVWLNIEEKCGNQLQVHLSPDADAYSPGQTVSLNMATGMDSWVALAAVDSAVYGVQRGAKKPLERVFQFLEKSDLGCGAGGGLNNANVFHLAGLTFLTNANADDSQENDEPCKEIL
T3 sequence (P01031 678-1676, chain 2 of 2): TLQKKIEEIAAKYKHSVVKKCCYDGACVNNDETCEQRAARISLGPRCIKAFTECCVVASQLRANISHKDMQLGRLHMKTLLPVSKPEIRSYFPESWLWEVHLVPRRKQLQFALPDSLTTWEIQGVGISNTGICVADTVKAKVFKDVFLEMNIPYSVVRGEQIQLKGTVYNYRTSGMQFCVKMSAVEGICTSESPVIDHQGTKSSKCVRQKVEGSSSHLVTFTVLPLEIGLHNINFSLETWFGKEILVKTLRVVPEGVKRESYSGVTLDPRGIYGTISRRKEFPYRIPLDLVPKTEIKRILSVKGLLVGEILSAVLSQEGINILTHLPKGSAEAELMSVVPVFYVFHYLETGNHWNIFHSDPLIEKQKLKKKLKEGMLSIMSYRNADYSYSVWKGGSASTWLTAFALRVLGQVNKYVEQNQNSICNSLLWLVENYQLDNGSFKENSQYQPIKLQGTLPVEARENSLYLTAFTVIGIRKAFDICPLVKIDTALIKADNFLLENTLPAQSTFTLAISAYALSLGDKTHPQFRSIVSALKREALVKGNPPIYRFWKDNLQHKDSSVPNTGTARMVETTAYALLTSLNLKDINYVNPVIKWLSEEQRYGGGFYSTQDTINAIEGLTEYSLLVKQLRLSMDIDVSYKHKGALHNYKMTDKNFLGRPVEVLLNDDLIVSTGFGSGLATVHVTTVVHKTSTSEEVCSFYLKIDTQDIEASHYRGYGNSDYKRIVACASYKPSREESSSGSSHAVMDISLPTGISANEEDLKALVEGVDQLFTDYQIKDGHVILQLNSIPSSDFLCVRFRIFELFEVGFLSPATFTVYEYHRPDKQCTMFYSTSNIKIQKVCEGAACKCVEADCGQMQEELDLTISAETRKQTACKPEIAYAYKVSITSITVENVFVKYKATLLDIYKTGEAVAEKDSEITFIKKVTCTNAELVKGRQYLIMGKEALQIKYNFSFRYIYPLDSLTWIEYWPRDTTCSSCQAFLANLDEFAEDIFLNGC

Binder	Kd (complement C8 [1]) [µM]	Kd (complement factor H) [µM]	Kd (complement C5) [µM]	Kd (complement C8 [2]) [µM]	Kd (complement factor H (FH)) [µM]	Kd (complement C3) [µM]
recombinant full-length thrombospondin-1 (natural protein, Thrombospondin-1, human cDNA from Sinobiological (HG10508-UT), subcloned into pFastbac1 behind a gp67 signal peptide for secretion; The gp67 signal peptide stands in place of or before the native one; also called TSP-1; source: Spodoptera frugiperda 9 cells (baculovirus), purified from cell supernatants via Ni-NTA columns; not shown: 10xHis, N-terminal, kept) not shown	0.31	0.203	–	–	–	–
recombinant full-length thrombospondin-1 (TSP-1) (natural protein, Thrombospondin-1, human cDNA (Sinobiological HG10508-UT) subcloned into pFastbac1 with a gp67 signal peptide for secretion and an N-terminal 10xHis tag; called recombinant full-length TSP-1; Secreted through a gp67 signal peptide; also called recombinant TSP-1; source: Spodoptera frugiperda 9 cells (baculovirus), purified from cell supernatants via Ni-NTA columns; not shown: 10xHis, N-terminal, …) not shown	–	–	0.047	0.311	0.203	0.127
